Measurements reported in patent US20050282743A1, “Molecular interactions in cells” (Arbor Vita Corporation, priority 2001, published 2005).
Ends that are not written are not given here. Peptide text beside a SMILES is read from it. * marks the point of attachment. Biotin = O=C1N[C@H]2[C@H](CS[C@H]2CCCCC(=O)*)N1

Legend:
Format in all cases: binding
[1] = target: T1, PDZ protein (GST-PDZ fusion) (Homo sapiens, UniProt P55196); test: G' assay (10 uM PL peptide), results of TABLE 7 and TABLE 12; conditions: PDZ AF6, PDZ Domain 1
T1 construct: made in house; host or cells: E. coli (DH5alpha, BL21 or JM109)
T1 sequence (P55196 whole entry, the tested form may be a part): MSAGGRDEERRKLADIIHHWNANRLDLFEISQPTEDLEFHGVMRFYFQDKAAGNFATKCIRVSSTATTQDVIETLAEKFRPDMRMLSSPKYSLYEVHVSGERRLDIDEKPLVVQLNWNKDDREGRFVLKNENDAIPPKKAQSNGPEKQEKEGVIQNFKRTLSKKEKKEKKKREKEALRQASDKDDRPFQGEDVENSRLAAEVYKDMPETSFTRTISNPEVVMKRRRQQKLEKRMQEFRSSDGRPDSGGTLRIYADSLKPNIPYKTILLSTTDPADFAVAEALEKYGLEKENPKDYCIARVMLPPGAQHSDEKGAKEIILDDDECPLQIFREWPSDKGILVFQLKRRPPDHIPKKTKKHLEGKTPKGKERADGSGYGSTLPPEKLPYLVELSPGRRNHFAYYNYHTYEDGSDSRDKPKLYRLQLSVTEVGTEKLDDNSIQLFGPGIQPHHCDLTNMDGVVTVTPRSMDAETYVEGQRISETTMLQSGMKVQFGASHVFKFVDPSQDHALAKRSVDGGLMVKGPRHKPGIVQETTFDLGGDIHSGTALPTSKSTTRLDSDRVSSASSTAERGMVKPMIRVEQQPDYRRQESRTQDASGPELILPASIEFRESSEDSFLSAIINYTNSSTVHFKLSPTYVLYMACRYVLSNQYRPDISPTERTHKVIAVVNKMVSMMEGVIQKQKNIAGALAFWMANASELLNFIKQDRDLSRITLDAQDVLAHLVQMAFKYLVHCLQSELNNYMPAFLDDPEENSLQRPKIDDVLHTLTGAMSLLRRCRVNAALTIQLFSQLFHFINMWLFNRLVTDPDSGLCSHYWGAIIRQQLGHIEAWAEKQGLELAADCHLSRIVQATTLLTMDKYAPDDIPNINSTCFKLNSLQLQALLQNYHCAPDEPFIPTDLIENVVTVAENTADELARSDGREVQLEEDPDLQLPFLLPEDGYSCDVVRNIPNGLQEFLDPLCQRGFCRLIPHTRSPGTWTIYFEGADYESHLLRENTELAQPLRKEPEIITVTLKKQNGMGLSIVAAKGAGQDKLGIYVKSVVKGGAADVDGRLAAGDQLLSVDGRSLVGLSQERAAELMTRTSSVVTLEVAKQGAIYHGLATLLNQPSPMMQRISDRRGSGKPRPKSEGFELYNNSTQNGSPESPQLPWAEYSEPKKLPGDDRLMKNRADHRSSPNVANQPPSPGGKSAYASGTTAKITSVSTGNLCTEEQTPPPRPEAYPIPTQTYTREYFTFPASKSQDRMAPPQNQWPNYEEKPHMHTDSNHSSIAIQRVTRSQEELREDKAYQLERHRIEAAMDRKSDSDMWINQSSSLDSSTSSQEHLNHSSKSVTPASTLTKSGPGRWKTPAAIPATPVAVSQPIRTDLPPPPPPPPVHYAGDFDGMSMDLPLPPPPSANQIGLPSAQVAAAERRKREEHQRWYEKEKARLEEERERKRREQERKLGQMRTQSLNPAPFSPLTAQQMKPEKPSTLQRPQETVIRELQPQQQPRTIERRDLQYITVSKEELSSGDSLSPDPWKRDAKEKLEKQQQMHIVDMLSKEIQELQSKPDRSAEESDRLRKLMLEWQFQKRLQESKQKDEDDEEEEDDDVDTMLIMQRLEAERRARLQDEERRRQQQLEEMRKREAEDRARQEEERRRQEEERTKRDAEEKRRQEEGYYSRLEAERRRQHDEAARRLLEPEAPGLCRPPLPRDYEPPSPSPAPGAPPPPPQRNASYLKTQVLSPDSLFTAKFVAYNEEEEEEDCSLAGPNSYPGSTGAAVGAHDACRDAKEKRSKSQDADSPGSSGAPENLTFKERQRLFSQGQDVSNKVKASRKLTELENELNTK
Summary of the method: (§1)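 Biotinylated PL peptides at 10 uM (vs 20 uM in G^0 assay) bound to GST-PDZ fusions; PDZ protein at 5 ug/ml unless another concentration listed. Bound peptide read as A450 nm, classified 0–5 (0 = A450 0; 5 = A450 >4 repeated).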

[2] = target: T2, PDZ protein (GST-PDZ fusion) (Homo sapiens, UniProt Q02410); test: as above; conditions: PDZ Mint 1, PDZ Domain 1, 2
T2 construct: made in house; host or cells: E. coli (DH5alpha, BL21 or JM109)
T2 sequence (Q02410 1-837): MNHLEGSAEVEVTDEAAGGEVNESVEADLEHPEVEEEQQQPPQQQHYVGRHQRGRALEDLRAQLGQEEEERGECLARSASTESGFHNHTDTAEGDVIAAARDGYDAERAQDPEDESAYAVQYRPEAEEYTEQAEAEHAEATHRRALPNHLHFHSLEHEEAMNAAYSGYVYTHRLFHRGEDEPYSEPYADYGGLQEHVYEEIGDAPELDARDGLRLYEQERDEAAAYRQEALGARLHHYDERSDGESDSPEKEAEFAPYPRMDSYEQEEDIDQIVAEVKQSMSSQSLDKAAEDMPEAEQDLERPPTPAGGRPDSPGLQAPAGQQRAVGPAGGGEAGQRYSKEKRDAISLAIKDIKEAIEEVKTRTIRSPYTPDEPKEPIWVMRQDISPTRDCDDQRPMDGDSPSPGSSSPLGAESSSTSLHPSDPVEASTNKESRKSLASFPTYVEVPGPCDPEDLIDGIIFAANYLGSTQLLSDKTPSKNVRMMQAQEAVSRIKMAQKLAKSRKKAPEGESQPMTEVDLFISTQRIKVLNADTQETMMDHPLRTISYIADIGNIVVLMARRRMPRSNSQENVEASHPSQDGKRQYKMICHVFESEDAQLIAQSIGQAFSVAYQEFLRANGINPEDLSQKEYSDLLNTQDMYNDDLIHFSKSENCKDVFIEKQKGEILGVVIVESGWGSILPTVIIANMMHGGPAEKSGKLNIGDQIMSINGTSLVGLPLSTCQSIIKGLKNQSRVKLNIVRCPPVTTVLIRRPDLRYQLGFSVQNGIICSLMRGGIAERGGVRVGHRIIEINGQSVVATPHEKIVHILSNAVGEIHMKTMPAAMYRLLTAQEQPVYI
Summary of the method: as §1

[3] = target: T3, PDZ protein (GST-PDZ fusion) (Homo sapiens, UniProt Q5TCQ9); test: as above
T3 construct: made in house; host or cells: E. coli (DH5alpha, BL21 or JM109)
T3 sequence (Q5TCQ9 1-1481): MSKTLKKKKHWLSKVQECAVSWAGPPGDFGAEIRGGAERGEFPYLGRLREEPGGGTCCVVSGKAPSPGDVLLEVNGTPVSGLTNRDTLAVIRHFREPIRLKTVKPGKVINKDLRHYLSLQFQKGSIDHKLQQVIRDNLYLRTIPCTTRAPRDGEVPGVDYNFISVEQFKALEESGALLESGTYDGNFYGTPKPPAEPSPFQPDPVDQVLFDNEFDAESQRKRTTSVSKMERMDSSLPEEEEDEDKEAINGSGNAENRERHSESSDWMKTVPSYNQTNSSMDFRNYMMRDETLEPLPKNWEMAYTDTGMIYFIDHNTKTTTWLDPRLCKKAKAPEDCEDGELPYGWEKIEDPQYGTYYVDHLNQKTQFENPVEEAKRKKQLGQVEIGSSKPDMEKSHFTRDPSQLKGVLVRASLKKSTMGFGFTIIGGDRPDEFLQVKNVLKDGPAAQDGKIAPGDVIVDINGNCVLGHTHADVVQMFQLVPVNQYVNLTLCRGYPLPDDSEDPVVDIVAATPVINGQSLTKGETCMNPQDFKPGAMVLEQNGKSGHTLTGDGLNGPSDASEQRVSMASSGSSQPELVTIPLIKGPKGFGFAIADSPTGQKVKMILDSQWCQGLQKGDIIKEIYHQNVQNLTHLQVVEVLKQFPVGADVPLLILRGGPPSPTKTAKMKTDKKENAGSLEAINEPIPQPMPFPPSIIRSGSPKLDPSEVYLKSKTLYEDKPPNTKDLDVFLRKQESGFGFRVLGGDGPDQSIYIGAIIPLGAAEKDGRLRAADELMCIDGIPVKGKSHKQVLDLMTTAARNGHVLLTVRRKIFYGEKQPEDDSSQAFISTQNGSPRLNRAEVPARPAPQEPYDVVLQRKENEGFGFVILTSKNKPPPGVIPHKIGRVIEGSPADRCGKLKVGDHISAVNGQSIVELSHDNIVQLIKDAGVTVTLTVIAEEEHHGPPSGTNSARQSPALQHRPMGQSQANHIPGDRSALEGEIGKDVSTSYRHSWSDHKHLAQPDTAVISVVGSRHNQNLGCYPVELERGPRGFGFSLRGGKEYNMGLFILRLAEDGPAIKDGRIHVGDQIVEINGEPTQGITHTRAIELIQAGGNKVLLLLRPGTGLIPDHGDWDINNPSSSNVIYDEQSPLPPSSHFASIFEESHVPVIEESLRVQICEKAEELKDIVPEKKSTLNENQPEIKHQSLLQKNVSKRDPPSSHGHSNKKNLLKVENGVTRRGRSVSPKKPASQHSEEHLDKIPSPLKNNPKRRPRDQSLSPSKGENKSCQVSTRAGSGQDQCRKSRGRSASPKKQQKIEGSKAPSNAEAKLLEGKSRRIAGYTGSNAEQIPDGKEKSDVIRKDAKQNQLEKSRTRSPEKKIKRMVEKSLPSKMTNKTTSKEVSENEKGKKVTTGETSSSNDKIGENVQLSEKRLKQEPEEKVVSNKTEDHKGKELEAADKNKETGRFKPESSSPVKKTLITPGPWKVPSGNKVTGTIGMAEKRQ
Summary of the method: as §1

[4] = target: T4, PDZ protein (GST-PDZ fusion) (Homo sapiens, UniProt O14908); test: as above; conditions: PDZ TAX IP2, PDZ Domain 1
T4 construct: made in house; host or cells: E. coli (DH5alpha, BL21 or JM109)
T4 sequence (O14908 1-333): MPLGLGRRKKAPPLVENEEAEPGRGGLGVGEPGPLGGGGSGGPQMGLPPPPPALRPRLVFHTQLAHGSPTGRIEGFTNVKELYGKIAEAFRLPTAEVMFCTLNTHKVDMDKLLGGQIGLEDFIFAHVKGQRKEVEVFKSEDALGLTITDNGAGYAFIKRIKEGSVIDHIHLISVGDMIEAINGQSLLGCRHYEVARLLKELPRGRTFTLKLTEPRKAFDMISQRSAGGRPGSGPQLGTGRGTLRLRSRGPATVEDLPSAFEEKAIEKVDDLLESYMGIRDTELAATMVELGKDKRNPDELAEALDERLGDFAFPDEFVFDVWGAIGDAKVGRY
Summary of the method: as §1

[5] = target: T5, PDZ protein (GST-PDZ fusion) (Homo sapiens, UniProt Q6P0Q8); test: as above
T5 construct: made in house; host or cells: E. coli (DH5alpha, BL21 or JM109)
T5 sequence (Q6P0Q8 whole entry, the tested form may be a part): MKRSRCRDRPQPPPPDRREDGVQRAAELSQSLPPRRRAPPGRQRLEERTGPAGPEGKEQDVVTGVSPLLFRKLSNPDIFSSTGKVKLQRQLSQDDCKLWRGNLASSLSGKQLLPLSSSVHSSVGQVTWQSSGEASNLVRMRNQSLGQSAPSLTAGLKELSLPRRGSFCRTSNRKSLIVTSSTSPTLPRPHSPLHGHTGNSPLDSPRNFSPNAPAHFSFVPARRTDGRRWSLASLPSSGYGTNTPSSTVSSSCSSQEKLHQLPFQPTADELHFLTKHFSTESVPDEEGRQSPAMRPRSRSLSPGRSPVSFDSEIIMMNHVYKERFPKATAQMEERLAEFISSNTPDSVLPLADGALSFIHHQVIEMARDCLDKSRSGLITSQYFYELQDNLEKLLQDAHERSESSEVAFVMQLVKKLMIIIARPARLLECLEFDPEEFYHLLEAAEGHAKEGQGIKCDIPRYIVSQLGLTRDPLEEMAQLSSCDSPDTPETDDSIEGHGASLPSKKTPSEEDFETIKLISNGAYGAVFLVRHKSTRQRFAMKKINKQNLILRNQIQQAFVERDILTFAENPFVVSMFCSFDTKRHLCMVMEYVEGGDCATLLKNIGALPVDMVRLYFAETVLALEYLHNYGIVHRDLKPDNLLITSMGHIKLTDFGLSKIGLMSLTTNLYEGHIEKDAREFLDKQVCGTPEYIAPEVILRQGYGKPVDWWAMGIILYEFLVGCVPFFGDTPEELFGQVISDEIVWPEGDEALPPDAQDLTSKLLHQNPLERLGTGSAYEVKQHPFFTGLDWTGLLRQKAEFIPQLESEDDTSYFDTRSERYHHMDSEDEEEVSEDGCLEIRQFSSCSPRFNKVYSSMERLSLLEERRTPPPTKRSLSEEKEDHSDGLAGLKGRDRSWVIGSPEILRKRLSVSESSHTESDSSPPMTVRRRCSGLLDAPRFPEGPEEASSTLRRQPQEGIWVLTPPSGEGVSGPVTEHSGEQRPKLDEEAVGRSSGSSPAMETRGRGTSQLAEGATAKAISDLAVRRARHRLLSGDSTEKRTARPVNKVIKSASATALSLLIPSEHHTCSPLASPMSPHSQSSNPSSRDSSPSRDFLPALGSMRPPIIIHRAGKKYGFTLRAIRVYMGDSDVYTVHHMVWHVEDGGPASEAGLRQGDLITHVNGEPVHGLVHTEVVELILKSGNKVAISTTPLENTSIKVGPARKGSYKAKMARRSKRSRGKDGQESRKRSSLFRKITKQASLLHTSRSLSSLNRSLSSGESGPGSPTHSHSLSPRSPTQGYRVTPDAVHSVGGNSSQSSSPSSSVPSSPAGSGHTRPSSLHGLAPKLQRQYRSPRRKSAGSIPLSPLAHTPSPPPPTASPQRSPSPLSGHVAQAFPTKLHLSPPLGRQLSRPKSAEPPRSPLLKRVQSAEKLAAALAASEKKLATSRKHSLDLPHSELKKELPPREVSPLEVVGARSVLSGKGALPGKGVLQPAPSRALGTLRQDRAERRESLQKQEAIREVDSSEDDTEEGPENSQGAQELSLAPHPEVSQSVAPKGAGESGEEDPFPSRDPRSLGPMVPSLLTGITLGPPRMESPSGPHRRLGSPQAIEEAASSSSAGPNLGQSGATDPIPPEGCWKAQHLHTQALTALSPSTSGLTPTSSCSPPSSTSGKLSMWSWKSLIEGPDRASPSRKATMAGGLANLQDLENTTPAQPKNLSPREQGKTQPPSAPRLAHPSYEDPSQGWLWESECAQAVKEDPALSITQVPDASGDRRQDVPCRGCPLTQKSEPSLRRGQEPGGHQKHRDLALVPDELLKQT
Summary of the method: as §1

[6] = target: PDZ-domain polypeptide (GST/PDZ fusion protein); test: Apparent affinity (Kd) by titration of PL peptide in the G assay; conditions: PDZ TAX IP2, PDZ Domain 1; read-out: Peptide Optimal Conc (Kd by titration of the PL peptide)
Procedure: (§2) The third column labeled “Peptide Optimal Concentration” in the tables is a number reflective of the binding interaction between the PL protein and PDZ protein. […] The column labeled “Protein Optimal Concentration” refers to the protein concentration used to assay PL interaction (in ug/ml); a ‘0’ is indicative of 5 ug/ml protein concentration; any other value represents the concentration (in ug/ml) used to determine the dissociation constant for a given interaction.
(§3) The “A” and “G” assays described supra can be used to determine the “apparent affinity” of binding of a PDZ ligand peptide to a PDZ-domain polypeptide. Apparent affinity is determined based on the concentration of one molecule required to saturate the binding of a second molecule (e.g., the binding of a ligand to a receptor). Two particularly useful approaches for quantitation of apparent affinity of PDZ-ligand binding are provided infra.
(§4) In cases where satisfying the above criteria proves difficult, an alternative approach (infra) can be used.
(§5) (1) A fixed concentration of a PDZ-domain polypeptide and increasing concentrations of a labeled PL peptide (labeled with, for example, biotin or fluorescein, see TABLE 9 for representative peptide amino acid sequences) are mixed together in solution and allowed to react. In certain assays, peptide concentrations are 0.1 uM, 1 uM, 10 uM, 100 uM, 1 mM. In other assays, appropriate reaction times can range from 10 minutes to 2 days at temperatures ranging from 4° C. to 37° C. In some instances, the identical reaction can also be carried out using a non-PDZ domain-containing protein as a control (e.g., if the PDZ-domain polypeptide is fusion protein, the fusion partner can be used).
(§6) (2) PDZ-ligand complexes can be separated from unbound labeled peptide using a variety of methods known in the art.
(§7) (3) The PDZ-ligand complex is detected based on presence of the label on the peptide ligand using a variety of methods and detectors known to one of skill in the art. For example, if the label is fluorescein and the separation is achieved using HPSEC, an in-line fluorescence detector can be used. The binding can also be detected as described supra for the G assay.

[7] = target: T6, PDZ protein (GST-PDZ fusion) (Homo sapiens, UniProt Q12923); test: G' assay (10 uM PL peptide), results of TABLE 7 and TABLE 12
T6 construct: made in house; host or cells: E. coli (DH5alpha, BL21 or JM109)
Summary of the method: as §1

[8] = target: T7, PDZ-domain polypeptide (GST/PDZ fusion protein) (Homo sapiens, UniProt Q12923); test: Apparent affinity (Kd) by titration of PL peptide in the G assay; conditions: PDZ PTPL-1, PDZ Domain 2; read-out: Peptide Optimal Conc (non-zero value: Kd by titration of the PL peptide)
T7 construct: made in house; host or cells: E. coli (DH5alpha, BL21 or JM109)
Procedure: as §2, §3, §4, §5, §6, §7

[9] = target: T8, PDZ-domain polypeptide (GST/PDZ fusion protein) (Homo sapiens, UniProt Q5TCQ9); test: as above; conditions: PDZ KIAA1634, PDZ Domain 2; read-out: Peptide Optimal Conc (non-zero value: Kd by titration of the PL peptide)
T8 construct: made in house; host or cells: E. coli (DH5alpha, BL21 or JM109)
T8 sequence (Q5TCQ9 1-1481): T3 sequence (Q5TCQ9 1-1481)
Procedure: as §2, §3, §4, §5, §6, §7

[10] = target: T9, PDZ protein (GST-PDZ fusion) (Homo sapiens, UniProt Q8NI35); test: G' assay (10 uM PL peptide), results of TABLE 7 and TABLE 12; conditions: PDZ INADL, PDZ Domain 3
T9 construct: made in house; host or cells: E. coli (DH5alpha, BL21 or JM109)
Summary of the method: as §1

Molecule: SSPDSSYQGKGFVMSRAMYV (Biotin-SSPDSSYQGKGFVMSRAMYV) [Nectin 2]
- Classification [1]: 2 (A450 nm 1-2)
- Classification [2]: 2 (A450 nm 1-2)
- Classification ([3]; PDZ KIAA1634, PDZ Domain 1): 1 (A450 nm 0-1)

Molecule: AKT-1 (Biotin-VDSERRPHFPQFSYSASSTA)
- Classification [4]: 4 (A450 nm 3-4)
- Classification ([5]; PDZ KIAA0807(S), PDZ Domain 1): 1 (A450 nm 0-1)
- Classification ([5]; PDZ KIAA807, PDZ Domain not given): 1 (A450 nm 0-1)
- Kd [6]: 2500 nM

Molecule: CC[C@H](C)[C@H](NC(=O)CCCC[C@@H]1SC[C@@H]2NC(=O)N[C@@H]21)C(=O)N[C@H](C(=O)N[C@H](C(=O)N[C@H](C(=O)N[C@H](C(=O)N[C@H](C(=O)N[C@@H](CCSC)C(=O)N[C@H](C(=O)N[C@H](C(=O)N[C@@H](CC(N)=O)C(=O)N[C@H](C(=O)N[C@@H](CC(=O)O)C(=O)N[C@@H](Cc1ccccc1)C(=O)N1CCC[C@H]1C(=O)N1CCC[C@H]1C(=O)N[C@@H](CCCCN)C(=O)N[C@@H](CCC(=O)O)C(=O)N[C@@H](CO)C(=O)N[C@@H](CO)C(=O)N[C@@H](CC(C)C)C(=O)O)C(C)C)[C@@H](C)O)C(C)C)[C@@H](C)O)C(C)C)C(C)C)[C@@H](C)O)C(C)C [ActRIIA] (Biotin-IVTVVTMVTNVDFPPKESSL-OH; C-terminus assumed)
- Classification ([7]; PDZ PTPL-1, PDZ Domain 2): 3 (A450 nm 2-3)
- Classification ([3]; PDZ KIAA1634, PDZ Domain 2): 2 (A450 nm 1-2)
- Kd [8]: 5 µM
- Kd [9]: 5 µM

Molecule: YSQPSARSEGEFKQTSSFLV (Biotin-YSQPSARSEGEFKQTSSFLV) [JAM (junctional adhesion molecule)]
- Classification [1]: 1 (A450 nm 0-1)
- Classification [10]: 1 (A450 nm 0-1)
- Classification ([7]; PDZ PTPL-1, PDZ Domain 4): 1 (A450 nm 0-1)
